Results published in patent US6060595.

Target: HBV 21 kDa viral core protein (p21) (human hepatitis B virus (HBV))

Substance: Met-p22 (precore protein lacking the signal peptide sequence and having instead an initial methionine), expressed from pCMVKM22
- HBV DNA replication, titration of plasmid molar ratios: 15 fold
